This assay has as its system rabbit iRhom1. Briefly: FACS binding on MEF-DKO-Rabbit-iR1-FL-WT-T7 cells. The conditions noted are these: antibody at 3 μg/ml. The text has this: Next, iRhom1/2−/− DKO MEFs stably expressing a tagged form of rhesus monkey, cynomolgus monkey, dog or rabbit iRhom2 were generated in order to determine cross-reactivity of the antibodies of the invention with the respective orthologue of iRhom2. iRhom1/2−/− DKO MEFs stably expressing a tagged form of rhesus monkey, cynomolgus monkey, dog or rabbit iRhom1 were generated to confirm specificity for iRhom2 versus iRhom1 of these species.
In brief, on day 1, Phoenix-ECO cells (American Type Culture Collection, USA) were seeded on 6-well tissue culture plates (Greiner, Germany) in standard growth medium at 8×10^5 cells per well and kept overnight at 37° C., 5% CO2. On day 2, the medium was replaced by fresh medium supplemented with chloroquine (Sigma-Aldrich, USA) at a final concentration of 25 μM. Applying the calcium phosphate method, cells were transfected with 2 μg/ml of pMSCV (Clontech, USA) empty vector, pMSCV-rhesus-iR2-FL-WT-T7 encoding rhesus monkey iRhom2 full length wild type C-terminally tagged with 3 consecutive copies of the T7 epitope, pMSCV-cyno-iR2-FL-WT-T7 encoding cynomolgus monkey iRhom2 full length wild type C-terminally tagged with 3 consecutive copies of the T7 epitope, pMSCV-dog-iR2-FL-WT-T7 encoding dog iRhom2 full length wild type C-terminally tagged with 3 consecutive copies of the T7 epitope or pMSCV-rabbit-iR2-FL-WT-T7 encoding rabbit iRhom2 full length wild type C-terminally tagged with 3 consecutive copies of the T7 epitope, respectively, and were kept at 37° C., 5% CO2. After 7 hours, the transfections were stopped by replacing cell supernatants with standard growth medium lacking chloroquine, and cells were incubated at 37° C., 5% CO2 to allow virus production overnight. In parallel, immortalized iRhom1/2−/− DKO MEFs as target cells for retroviral infection were seeded on 6-well tissue culture plates (Greiner, Germany) in standard growth medium at 1×10^5 cells per well and were also kept overnight at 37° C., 5% CO2. On day 3, the supernatants of Phoenix-ECO cells releasing pMSCV, pMSCV-rhesus-iR2-FL-WT-T7, pMSCV-cyno-iR2-FL-WT-T7, pMSCV-dog-iR2-FL-WT-T7 or pMSCV-rabbit-iR2-FL-WT-T7 ecotrophic virus, respectively were collected, filtered with 0.45 μm CA filters, and supplemented with 4 μg/ml of polybrene (Sigma-Aldrich, USA). Upon removal of medium from the immortalized iRhom1/2−/− DKO MEFs, the virus containing supernatants were added to the target cells for 4 hours at 37° C., 5% CO2 for first infection. Simultaneously, Phoenix-ECO cells were re-incubated with fresh medium, which, after another 4 hours, was filtered and used for the second infection of the respective target cell populations, again in the presence of 4 μg/ml of polybrene. Likewise, a third, but overnight infection cycle was performed. On day 4, virus containing cell supernatants were replaced by fresh standard growth medium. From day 5 onwards, cells were grown in the presence of 2 mg/ml of geneticin (G418, Thermo Fisher Scientific, USA) for the selection of immortalized MEF-DKO-EV control cells stably infected with pMSCV empty vector, pMSCV-rhesus-iR2-FL-WT-T7 cells stably expressing rhesus monkey iRhom2 full length wild type C-terminally tagged with 3 consecutive copies of the T7 epitope, pMSCV-cyno-iR2-FL-WT-T7 cells stably expressing cynomolgus monkey iRhom2 full length wild type C-terminally tagged with 3 consecutive copies of the T7 epitope, pMSCV-dog-iR2-FL-WT-T7 cells stably expressing dog iRhom2 full length wild type C-terminally tagged with 3 consecutive copies of the T7 epitope or pMSCV-rabbit-iR2-FL-WT-T7 cells stably expressing rabbit iRhom2 full length wild type C-terminally tagged with 3 consecutive copies of the T7 epitope, respectively. Upon propagation, cells were stocked for future usage. In parallel, iRhom1/2−/− DKO MEFs stably expressing a tagged form of rhesus monkey, cynomolgus monkey, dog or rabbit iRhom1 were generated in an analogous manner. […]
(In general: Flow cytometry measures light scatter and fluorescence of single cells or particles in a stream.)

6 molecules from patent US12404345B2, “Humanized antibodies against iRHOM2” (SCIRHOM GMBH, priority 2021, dated 2025) can be followed below.

Changes are numbered by the printed parent chain.

B1: 16-B-03: humanized antibody binding human iRhom2; HCVD SEQ ID NO 1, LCVD SEQ ID NO 5 (antibody, V domains shown)
VH: QVTLRESGPALVKPTQTLTLTCTFSGFSLSTFALGVGWIRQPPGKALEWLAHIWWDDDKYYNPALKSRLTISKDTSKNQVVLTITNMDPVDTATYYCARITTYYYGMDYWGQGTLVTVSS
VL: EIVMTQSPDFQSVTPKEKVTITCRASQSIGNHLHWYQQKPDASPKLLIKYASQSISGVPSRFSGSGSGTDFTLTINSLEAEDAATYFCQQSYQWPLTFGQGTKLEIK
modifications: antibody sequences
With B1, the “binding to rabbit iRhom1 on MEF-DKO-Rabbit-iR1-FL-WT-T7 cells” value (from here on “binding to rabbit iRhom1”) is “no significant binding”.

B2: 16-B-07: humanized antibody binding human iRhom2; HCVD SEQ ID NO 17, LCVD SEQ ID NO 21 (antibody, V domains shown)
VH: B1 VH with D57E
VL: B1 VL
modifications: antibody sequences
For the molecule B2, the “binding to rabbit iRhom1” value is given as “do not recognize rabbit iRhom1”.

B3: 16-B-05: humanized antibody binding human iRhom2; HCVD SEQ ID NO 9, LCVD SEQ ID NO 13 (antibody, V domains shown)
VH: B1 VH with D57E
VL: B1 VL with Q93N
modifications: antibody sequences
On to B3, for which the “binding to rabbit iRhom1” value is reported as “do not recognize rabbit iRhom1”.

B4: 23-B-04: humanized antibody binding human iRhom2; HCVD SEQ ID NO 25, LCVD SEQ ID NO 29 (antibody, V domains shown)
VH: QVTLRESGPALVKPTQTLTLTCTFSGFSLSTFGMGVGWIRQPPGKALEWLAHIWWDDEKYYNSALKSRLTISKDTSKNQVVLTITNMDPVDTATYYCARISNYGSNYWYFNVWGQGTLVTVSS
VL: AIQLTQSPSSLSASVGDRVTITCRASSSVSYMYWYQQKPGKAPKVLIYDTSNLASGVPSRFSGSGSGTDYTLTISSLQPEDFATYYCQQWNAYPLTFGQGTKLEIK
modifications: antibody sequences
B4: the “binding to rabbit iRhom1” value is “do not recognize rabbit iRhom1”.

B5: 42-B-02: humanized antibody binding human iRhom2; HCVD SEQ ID NO 33, LCVD SEQ ID NO 37 (antibody, V domains shown)
VH: B4 VH with M34R, S101Q, N111D
VL: B4 VL with S28R, V29I, Y33F, A92S
modifications: antibody sequences
In the case of B5, the “binding to rabbit iRhom1” value is on record as “do not recognize rabbit iRhom1”.

B6: 42-B-04: humanized antibody binding human iRhom2; HCVD SEQ ID NO 41, LCVD SEQ ID NO 45 (antibody, V domains shown)
VH: B4 VH with M34R, S101Q, N111D
VL: B4 VL with S28R, V29I, Y33F
modifications: antibody sequences
As to B6, the “binding to rabbit iRhom1” value is reported as “do not recognize rabbit iRhom1”.
